B1: 2-13: anti-FAM19A5 antibody; VH SEQ ID NO: 35, VL SEQ ID NO: 39 (antibody, V domains shown)
VH: AVTLDESGGGLQTPGGALSLVCKASGFTFSSHGMFWVRQTPGKGLEYVAEITNDGSGTNYGSAVKGRATISRDNGQSTVRLQLNNLRAEDTGTYFCARSTYECPGGFSCWGDTGQIDAWGHGTEVIVSS
VL: ALTQPSSVSANPGETVKITCSGGSYSYGWFQQKSPGSALVTVIYWDDERPSDIPSRFSGALSGSTNTLTITGVQADDEAVYFCGTEDISGTAGVFGAGTTLTVL
modifications: 2-13 VH; 2-13 VL
B2: 1-30: anti-FAM19A5 antibody, de-immunized variant of 3-2; VH SEQ ID NO: 235, VL SEQ ID NO: 240 (antibody, V domains shown)
VH: AVTLDESGGGLQTPGGALRLSCKASGFDFESFNMFWVRQAPGKGLEYVSQISSSEEDENYAPAVKGRATISRDNGQSTLYLQMNSLRAEDTGTYYCAKSSYDCPYGHCSSGVDSAGEIDAWGHGTEVIVSS
VL: ALTQPSSVSANPGETVKITCSGGGSEEEQYYYGWYQQKPGSAPVTLIYQDEERPSDIPSRFSGSTSGSTATLTITGVQAGDEADYYCGSWDSEDEDHFGAGTTLTVL
modifications: Low-PI VH, 1-30 VH, 1-17 VH, 1-32 VH, 4-11 VH, 6-10 VH; 1-30 VL

Tests used:
[1] = target: FAM19A5 antigen (Homo sapiens, UniProt Q7Z5A7); experiment: Cross-competition two-site sandwich ELISA; assay type: binding; settings: antibodies 1-65, P2-A03, P2-F11, 13B4, 2-13, 3-2; cross-competition = S/N ratio lower than 2
FAM19A5 antigen, sequence (Q7Z5A7 44-132): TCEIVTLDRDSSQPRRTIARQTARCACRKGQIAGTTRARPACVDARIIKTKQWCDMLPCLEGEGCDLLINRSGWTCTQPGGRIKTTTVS
Experimental: The term “S/N” refers to the signal to noise ratio, which is measured as follows: [O.D. of 10 ng/ml antigen]/[O.D. of 0 ng/ml antigen].
Next, a two-site sandwich ELISA was used as described below to assess whether the different anti-FAM19A5 antibodies with similar binding epitopes cross-compete with each other.
First, the indicated anti-FAM19A5 antibodies were diluted in 1×PBS to a concentration of 10 μg/mL. The diluted anti-FAM19A5 antibodies (10 μg/mL in 1×PBS) (“capture antibody”) were used to coat the 96-well plates (100 μL/well) at 37° C. for approximately 1 hour. After the incubation, the plates were washed with the washing buffer (0.01% Tween-20/PBS; also called 0.01% PBST) for a total of five washes, blocked with the blocking solution (5% BSA/PBS; also called 5% PBSA) (250 μL/well) for one hour at 37° C., and then washed again. Next, 100 μg/mL of the FAM19A5 antigen (diluted in PBS containing 5% BSA, 0.01% Tween-20; also called 5% PBSAT; “diluent buffer) was added to each of the wells, and the 96-well plates were incubated for 2 hours at 37° C. After the incubations, the plates were washed using 0.01% PBST for a total of five washes. After the final wash, the indicated biotinylated anti-FAM19A5 antibodies (“detection antibody”) (diluted to lug/mL in 5% PBSAT) were added to the relevant wells (100 μL volume) and the plates were incubated for an additional 1 hour at 37° C. Afterwards, the plates were washed again with 0.01% PBST (five total washes). Next, 100 μL of the diluted (1/2000 in 5% PBSAT) Streptavidin-HRP (1 mg/mL, Sigma, USA) was added to the wells, and the plates were incubated for 30 minutes at room temperature. The plates were then washed and treated with 100 μL of the TMB substrate ([…], Thermo Fisher Scientific). After an additional 30-minute incubation at room temperature, the color change reaction was induced by the addition of the TMB substrate. This reaction was stopped using 50 μL of sulfuric acid (2N H2SO4), and the extent of color change was detected via absorption at 450 nm with reference wavelength at 620 nm using a 96 well microplate reader (Molecular Device).

[2] = system: noise-induced hearing loss mouse model; experiment: Dosage effect in noise-induced hearing loss mouse model (ABR threshold); assay type: in vivo
Experimental: FIGS. 15A, 15B, 15C, 15D, and 15E show the dose-dependent effects of FAM19A5 antagonist administration on ABR threshold in a noise-induced hearing loss mouse model. FIG. 15A provides a schematic of the experimental design. As shown, one day after noise exposure, the animals received varying concentrations of the anti-FAM19A5 antibody (1-30) (i.e., 0 mg/kg, 3 mg/kg, 7 mg/kg, 15 mg/kg, and 30 mg/kg). After noise exposure, control animals received a human anti-IgG antibody (30 mg/kg). ABR threshold was measured at one day after noise exposure and at two weeks after noise exposure. FIG. 15B provides a comparison of ABR threshold for the different treatment groups across a frequency of 0 kHz to 64 kHz at one day after noise exposure. FIG. 15C provides the same data shown in FIG. 15B except as bar graphs. FIG. 15D provides a comparison of ABR threshold for the different treatment groups across a frequency of 0 kHz to 64 kHz at two weeks after noise exposure. FIG. 15E provides the same data shown in […] except as bar graphs. In each of FIGS. 15B-15E, ABR threshold prior to noise exposure is also shown (“BN”). In both FIGS. 15C and 15E, for each of the frequency groups shown, the first bar (from the left) corresponds to pre-noise exposure (“BN”), the second bar corresponds to animal streated with the control anti-IgG antibody (“hIgG”), the third bar corresponds to animals treated with 0 mg/kg of the anti-FAM19A5 antibody, the fourth bar corresponds to animals treated with 3 mg/kg of the anti-FAM19A5 antibody, the fifth bar corresponds to animals treated with 7 mg/kg of the anti-FAM19A5 antibody, the sixth bar corresponds to animals treated with 15 mg/kg of the anti-FAM19A5 antibody, and the last bar corresponds to animals treated with 30 mg/kg of the anti-FAM19A5 antibody.
To assess whether the above-described therapeutic effects of FAM19A5 antagonists on hearing loss is dose dependent, the noise-induced hearing loss mouse model described in Example 3 was used. […] ABR threshold was measured prior to noise exposure, one day after noise exposure, and two weeks after noise exposure.

Row | Molecule | cross-competition with the other anti-FAM19A5 antibodies [1] | effect on ABR threshold by dose ([2]; one day post noise exposure, 15 mg/kg and 30 mg/kg) | ABR threshold across frequencies ([2]; one day post noise exposure, 1, 3, 7, 15, 30 mg/kg i.v.) | ABR threshold ([2]; two weeks post noise exposure, doses of 7, 15 or 30 mg/kg, many of the frequencies)
1 | B1 | did not cross-compete | – | – | –
2 | B2 | – | greatest effects | dose-dependent reduction | significant reduction

— patent US20260265360A1, “USE OF ANTI-FAM19A5 ANTAGONISTS FOR TREATING HEARING DISORDERS” (NEURACLE SCIENCE CO., LTD., priority 2023, published 2026)
